Target: T1, Crp (Mycobacterium smegmatis mc2155) (UniProt A0R5H1)
T1 sequence: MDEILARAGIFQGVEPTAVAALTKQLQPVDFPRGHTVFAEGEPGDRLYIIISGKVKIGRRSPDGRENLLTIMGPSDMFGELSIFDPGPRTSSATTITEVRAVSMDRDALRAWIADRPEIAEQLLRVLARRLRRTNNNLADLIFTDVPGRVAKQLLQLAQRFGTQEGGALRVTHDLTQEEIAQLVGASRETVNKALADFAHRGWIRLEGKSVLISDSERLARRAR
Assay: EMSA
Conditions: Invitrogen EMSA kit binding buffer, 100 fmol (9.3 ng) DNA, 100 uM cAMP, 20 min at room temperature; 8% native PAGE in 0.5x TBE pH 8.3 at 4 C, SYBR green stain

Sequence: GGCAGACCGCATCCGCGGCGCGTTCGGTCGCCGCGTCCCGCGCGCGGGAGATCCGTGCGTTTCGGGATGTGATGCCCGTCGCACGACGTGAGCGGCGGTGTGGAGAATCACGGCTCAGCAAAGTTGCATTTGTAAGAGGGCGCGACCAGA (double strand) [ahpC 150-bp wild-type IR1]
- binding: binds

Reference: article PMC4218801
